Measured values taken from patent US20100240056.

Test system: EcR-B/VP16-USP heterodimer (Leptinotarsa decemlineata)
Assay: EMSA
Details: reference band for densitometry; little change with agonist

## hsp27 EcRE probe
  binding signal: 1
